Source: PMC4909229, “Characterization of Staphylococcus aureus Primosomal DnaD Protein: Highly Conserved C-Terminal Region Is Crucial for ssDNA and PriA Helicase Binding but Not for DnaA Protein-Binding and Self-Tetrameri”

T1: SaDnaD1-200 (Staphylococcus aureus subsp. aureus ED98, UniProt Q9EUT0 1-200, del201-228)
T1 sequence: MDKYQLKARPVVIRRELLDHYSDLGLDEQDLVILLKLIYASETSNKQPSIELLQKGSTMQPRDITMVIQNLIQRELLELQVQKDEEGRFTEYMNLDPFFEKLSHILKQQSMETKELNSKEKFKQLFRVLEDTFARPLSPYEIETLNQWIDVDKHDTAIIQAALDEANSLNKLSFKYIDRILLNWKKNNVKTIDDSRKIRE

T2: SaDnaD1-195 (Staphylococcus aureus subsp. aureus ED98, UniProt Q9EUT0 1-195, del196-228)
T2 sequence: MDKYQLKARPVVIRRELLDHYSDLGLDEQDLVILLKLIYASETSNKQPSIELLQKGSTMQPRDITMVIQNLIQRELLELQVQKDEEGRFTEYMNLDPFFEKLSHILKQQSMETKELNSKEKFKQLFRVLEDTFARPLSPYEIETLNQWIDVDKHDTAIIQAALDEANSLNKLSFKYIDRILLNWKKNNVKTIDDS

T3: SaDnaD1-204 (Staphylococcus aureus subsp. aureus ED98, UniProt Q9EUT0 1-204, del205-228)
T3 sequence: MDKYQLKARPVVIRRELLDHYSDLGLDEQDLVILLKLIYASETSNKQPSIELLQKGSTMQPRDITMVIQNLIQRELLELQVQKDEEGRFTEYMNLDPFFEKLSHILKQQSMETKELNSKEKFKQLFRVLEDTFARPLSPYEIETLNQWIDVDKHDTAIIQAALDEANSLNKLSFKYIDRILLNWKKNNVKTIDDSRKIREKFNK

B1: dT65 (ssDNA)
DNA: TTTTTTTTTTTTTTTTTTTTTTTTTTTTTTTTTTTTTTTTTTTTTTTTTTTTTTTTTTTTTTTTT

Legend:
SaDnaD1-200 [1] = target: T1, SaDnaD1-200; assay: tryptophan fluorescence quenching; DNA:protein ratio 1; EMSA: 20 mM Tris-HCl pH 8.0, 100 mM NaCl, 25 C, 30 min, 1.7 nM DNA, gel at 4 C in TBE; fluorescence: 20 mM Tris-HCl pH 8.0, 200 or 500 mM NaCl, 0.1 uM tetramer; conditions: protein: recombinant; tags: C-terminal His tag (pET21e); chain copies: 4; label: 5'-32P (EMSA); unlabeled in fluorescence titration
SaDnaD1-195 [2] = target: T2, SaDnaD1-195; assay: as above; conditions: protein: recombinant; tags: C-terminal His tag (pET21e); chain copies: 4; label: 5'-32P (EMSA); unlabeled in fluorescence titration
SaDnaD1-204 = target: T3, SaDnaD1-204; assay: as above; conditions: protein: recombinant; tags: C-terminal His tag (pET21e); chain copies: 4; label: 5'-32P (EMSA); unlabeled in fluorescence titration
SaDnaD1-200 [3] = target: T1, SaDnaD1-200; assay: EMSA; EMSA: 20 mM Tris-HCl pH 8.0, 100 mM NaCl, 25 C, 30 min, 1.7 nM DNA, gel at 4 C in TBE; fluorescence: 20 mM Tris-HCl pH 8.0, 200 or 500 mM NaCl, 0.1 uM tetramer; conditions: protein: recombinant; tags: C-terminal His tag (pET21e); chain copies: 4; label: 5'-32P
SaDnaD1-195 [4] = target: T2, SaDnaD1-195; assay: as above; conditions: protein: recombinant; tags: C-terminal His tag (pET21e); chain copies: 4; label: 5'-32P

Binder	binding signal (SaDnaD1-200 [1])	binding signal (SaDnaD1-195 [2])	binding signal (SaDnaD1-204)	binding result (SaDnaD1-200 [3])	binding result (SaDnaD1-195 [4])
B1	< 10 % quenching	< 5 % quenching	~20 % quenching		
TTTTTTTTTTTTTTTTTTTTTTTTTTTTTTTTTTTTTTTT (ssDNA) [dT40]				no binding	no binding
